Experimental data taken from patent publication US20140073761A1, “CONJUGATES CONTAINING HYDROPHILIC SPACER LINKERS” (priority 2007, published 2014).
Where two headings read alike, the source gives them in different places.

Legend:
[1] = Cytotoxicity of bortezomib versus EC0501 (FIG. 14); assay type: cell-based
[2] = Serum binding, 30K NMWL filtration, HPLC-UV; assay type: in vitro ADME; details: 50 μM compound in serum, n=3
Experimental: Serum Binding. Serum binding of Folate-DAVLBH conjugates containing hydrophilic spacer linkers compared to Comparative Example EC 145 lacking a hydrophilic spacer linker 50 μM compound in serum with 30K NMWL filtration and evaluation by HPLC-UV detection (n=3).

[3] = Experimental: Toxicity as Measured by Weight Loss. The percentage weight change was determined in mice (5 mice/group) on selected days post-tumor inoculation (PTI), compared to controls, and graphed.
[4] = set-up: AUC (DAVLBH biliary excretion): unit not given beside the values; details: rat, in vivo, iv
[5] = Hepatobiliary excretion (bile clearance) in bile duct cannulated rats; details: 2 μmol/kg i.v. bolus
Description: Comparison of Bile Clearance (% ID) of unconjugated drug, drug conjugate lacking a hydrophilic spacer linker, and conjugates described herein.

[6] = Multiple dose MTD, i.v. TIW for 1 week; details: mouse, in vivo, iv, Balb/c mice
Experimental: EC0436 and Comparative Example EC0305 were also administered i.v. to Balb/c mice TIW for 1 week. The resulting MTD for the multiple dose was EC0305 ([…]) and EC0436 ([…]).

[7] = test system: RAW264.7 cells; assay type: cell-based; details: for RAW264.7 Cells Competable with xs folate: excess folic acid
Experimental: In Vitro Concentration-Dependent Cytotoxic Activity. Cells were heavily seeded in 24-well Falcon plates and allowed to form nearly confluent monolayers overnight. Thirty minutes prior to the addition of test article, spent medium was aspirated from all wells and replaced with fresh folate-free RPMI (FFRPMI). […] Treated cells were pulsed for 2 h at 37° C., rinsed 4 times with 0.5 mL of media, and then chased in 1 mL of fresh media up to 70 h. Spent media was aspirated from all wells and replaced with fresh media containing 5 μCi/mL ^3H-thymidine. Following a further 2 h 37° C. incubation, cells were washed 3 times with 0.5 mL of PBS and then treated with 0.5 mL of ice-cold 5% trichloroacetic acid per well. After 15 min, the trichloroacetic acid was aspirated and the cell material solubilized by the addition of 0.5 mL of 0.25 N sodium hydroxide for 15 min. Four hundred and fifty μL of each solubilized sample were transferred to scintillation vials containing 3 mL of Ecolume scintillation cocktail and then counted in a liquid scintillation counter. Final tabulated results were expressed as the percentage of ^3H-thymidine incorporation relative to untreated controls.
As shown in the figures herein, dose-dependent cytotoxicity was measurable, and in most cases, the IC50 values (concentration of drug conjugate required to reduce ^3H-thymidine incorporation into newly synthesized DNA by 50%) were in the low nanomolar range. […] The following table illustrated data for selected compounds against KB cells and against RAW264.7 cells

[8] = Cell viability, XTT, 5 h pulse/72 h chase (FIG. 16); assay type: cell-based
[9] = test system: 20S proteosome; test: Inhibition of LPS stimulated proteosome activity in RAW 264.7 cells (FIG. 18); assay type: cell-based; details: 5 h pulse/24 h chase, LPS 100 ng/mL
[10] = FIG. 6B, 7B, 8B, M109 tumors, Balb/c mice, 2 μmol/kg TIW two weeks

Compound: CC(C)C[C@H](NC(=O)[C@H](Cc1ccccc1)NC(=O)c1cnccn1)B(O)O [bortezomib]
- IC50 [1]: 20 nM

Compound: CC[C@]1(O)C[C@H]2CN(CCc3c([nH]c4ccccc34)[C@@](C(=O)OC)(c3cc4c(cc3OC)N(C)[C@H]3[C@@](O)(C(=O)NNC(=O)OCCSSC[C@H](NC(=O)[C@H](CC(=O)O)NC(=O)[C@H](CC(=O)O)NC(=O)[C@H](CCCNC(=N)N)NC(=O)[C@H](CC(=O)O)NC(=O)CC[C@H](NC(=O)c5ccc(NCc6cnc7nc(N)[nH]c(=O)c7n6)cc5)C(=O)O)C(=O)O)[C@H](O)[C@]5(CC)C=CCN6CC[C@]43[C@@H]65)C2)C1 [EC145, reference compound]
- fraction unbound at 50 μM ([2]; human, read-out: Human Serum (% Bound) (converted)): 0.457
- fraction unbound at 50 μM ([2]; mouse, read-out: Mouse Serum (% Bound) (converted)): 0.327
- gross toxicity (percentage body weight change) ([3]; mouse, in vivo): no gross toxicity was observed
- AUC (DAVLBH biliary excretion) [4]: 1092
- percent of total dose in the bile (total DAVLBH biliary excretion) [4]: 8.7%

Compound: CC[C@]1(O)CC2CN(CCc3c([nH]c4ccccc34)[C@@](C(=O)OC)(c3cc4c(cc3OC)N(C)C3C45CCN4CC=C[C@](CC)(C45)[C@@H](O)[C@]3(O)C(=O)NNC(=O)OCCSSC[C@H](NC(=O)C[C@H](NC(=O)C[C@H](NC(=O)CN3CCN(CCNC(=O)C[C@H](NC(=O)CC[C@H](NC(=O)c4ccc(NCc5cnc6nc(N)[nH]c(=O)c6n5)cc4)C(=O)O)C(=O)O)CC3)C(=O)O)C(=O)O)C(=O)O)C2)C1 (some centres unmarked) [EC0429]
- gross toxicity (percentage body weight change) [3, 10]: no gross toxicity was observed
- percent of total dose in the bile (total DAVLBH biliary excretion) [5]: 8.6%

Compound: CCCC(=O)OCN(C(=O)[C@@H](NC[C@H]1CCCCN1C)C(C)CC)[C@H](C[C@@H](OC(C)=O)c1nc(C(=O)N[C@@H](Cc2ccc(O)cc2)C[C@H](C)C(=O)NNC(=O)OCCSSC[C@H](NC(=O)[C@H](CC(=O)O)NC(=O)[C@H](CCCNC(=N)N)NC(=O)[C@H](CC(=O)O)NC(=O)CC[C@H](NC(=O)c2ccc(NCc3cnc4nc(N)[nH]c(=O)c4n3)cc2)C(=O)O)C(=O)O)cs1)C(C)C (some centres unmarked) [EC0305, reference compound]
- MTD at 1 week [6]: 6 µmol/kg
- gross toxicity (percentage body weight change) [3, 10]: no gross toxicity was observed

Compound: CC(C)C[C@H](NC(=O)[C@H](Cc1ccccc1)NC(=O)c1cnc(CSSC[C@H](NC(=O)[C@H](CCC(=O)NC[C@H](O)[C@@H](O)[C@H](O)[C@H](O)CO)NC(=O)[C@H](CCC(=O)O)NC(=O)[C@H](CSSCc2cnc(C(=O)N[C@@H](Cc3ccccc3)C(=O)N[C@@H](CC(C)C)B(O)O)cn2)NC(=O)[C@H](CCC(=O)NC[C@H](O)[C@@H](O)[C@H](O)[C@H](O)CO)NC(=O)[C@H](CCC(=O)O)NC(=O)[C@H](CCC(=O)NC[C@H](O)[C@@H](O)[C@H](O)[C@H](O)CO)NC(=O)CC[C@H](NC(=O)c2ccc(NCc3cnc4nc(N)[nH]c(=O)c4n3)cc2)C(=O)O)C(=O)O)cn1)B(O)O [EC0595]
- IC50 [7]: 4 nM
- RAW264.7 Cells Competable with xs folate [7]: Yes
- IC50 [8]: 13 nM
- IC50 [9]: ~30 nM

Compound: CC(C)C[C@H](NC(=O)[C@H](Cc1ccccc1)NC(=O)c1cnc(CSSC[C@H](NC(=O)[C@H](CCC(=O)NC[C@H](O)[C@@H](O)[C@H](O)[C@H](O)CO)NC(=O)[C@H](CCC(=O)O)NC(=O)[C@H](CCC(=O)NC[C@H](O)[C@@H](O)[C@H](O)[C@H](O)CO)NC(=O)[C@H](CCC(=O)O)NC(=O)[C@H](CCC(=O)NC[C@H](O)[C@@H](O)[C@H](O)[C@H](O)CO)NC(=O)CC[C@H](NC(=O)c2ccc(NCc3cnc4nc(N)[nH]c(=O)c4n3)cc2)C(=O)O)C(=O)O)cn1)B(O)O [EC0525]
- RAW264.7 Cells Competable with xs folate [7]: Yes
- IC50 [8]: 46 nM
- IC50 [9]: ~30 nM
